This note sets out measurements from patent CN116178550A (BEIJING DONGFANG BIOTECH CO LTD, dated 2023).

For experiment [1], the target named is T1, 人单核细胞白血病细胞(THP-1)表面LILRB4 (human, UniProt Q8NHJ6 22-448). Briefly: cell-based or functional assay.
Experiment [2] deals with T2, LILRA5 (UniProt A6NI73 42-268, limits assumed). The experiment in a line: ELISA, protein coated 100 ng/well, MF-I at 50 μg/mL.
The target in experiment [3] is T3, LILRA6 (UniProt Q6PI73 24-447, limits assumed). Described as above.
In experiment [4] the target is T4, LILRB1 (UniProt Q8NHL6 24-461, limits assumed). The description is as above.
In experiment [5] the target is T5, LILRB2 (UniProt Q8N423 22-460, limits assumed). Described as above.
Experiment [6] concerns the target T6, LILRB3 (UniProt O75022 24-443, limits assumed). Described as above.
The target of experiment [7] is T7, LILRB5 (UniProt O75023 24-458, limits assumed). The description is as above.
The target in experiment [8] is T8, LILRB4抗原 (人LILRB4蛋白胞外段) (human, UniProt Q8NHJ6 22-259).
T8 construct: extracellular domain; also called 白细胞免疫球蛋白样受体亚家族B成员4
The description is as above.

The target of experiment [9] is T9, LILRA1 (UniProt O75019 17-461, limits assumed). Described as above.
For experiment [10], the target named is T10, LILRA2 (UniProt Q8N149 24-449, limits assumed). Described as above.
Experiment [11] concerns the target T11, LILRA3 (UniProt Q8N6C8 24-439). The experiment is described as above.
The target in experiment [12] is T12, LILRA4 (UniProt P59901 24-446, limits assumed). The experiment is described as above.
The target in experiment [13] is T2, LILRA5. Briefly: ELISA, protein coated 100 ng/well, Goat Anti-Mouse IgG-HRP. A general note: An ELISA detects its analyte on a solid surface through an enzyme-linked reagent.
Experiment [14] has as its target T3, LILRA6. The description is as above.
For experiment [15], the target named is T4, LILRB1. The description is as above.
The target in experiment [16] is T5, LILRB2. The description is as above.
Experiment [17] has as its target T6, LILRB3. The description is as above.
Experiment [18] addresses T7, LILRB5. The description is as above.
The target of experiment [19] is T9, LILRA1. Described as above.
Experiment [20] deals with T10, LILRA2. Described as above.
Experiment [21] deals with T11, LILRA3. Described as above.
Experiment [22] concerns the target T12, LILRA4. The description is as above.
Experiment [23] deals with T8, LILRB4抗原 (人LILRB4蛋白胞外段). The experiment in a line: ELISA, LILRB4 coated 100 ng/well, Goat Anti-Mouse IgG-HRP.
Experiment [24] addresses T1, 人单核细胞白血病细胞(THP-1)表面LILRB4. The experiment in a line: flow cytometry on THP-1 cells, competition with 0.4 μg/mL FITC-labelled ApoE. A general note: In flow cytometry, cells or beads pass a laser one at a time.

T2 sequence (A6NI73 42-268 limits assumed): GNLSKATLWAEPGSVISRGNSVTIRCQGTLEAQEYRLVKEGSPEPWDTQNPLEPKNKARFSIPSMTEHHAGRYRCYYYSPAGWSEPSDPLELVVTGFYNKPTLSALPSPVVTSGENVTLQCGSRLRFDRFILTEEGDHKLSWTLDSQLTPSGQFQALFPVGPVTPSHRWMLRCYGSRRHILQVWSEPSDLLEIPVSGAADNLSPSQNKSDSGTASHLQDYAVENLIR
T7 sequence (O75023 24-458 limits assumed): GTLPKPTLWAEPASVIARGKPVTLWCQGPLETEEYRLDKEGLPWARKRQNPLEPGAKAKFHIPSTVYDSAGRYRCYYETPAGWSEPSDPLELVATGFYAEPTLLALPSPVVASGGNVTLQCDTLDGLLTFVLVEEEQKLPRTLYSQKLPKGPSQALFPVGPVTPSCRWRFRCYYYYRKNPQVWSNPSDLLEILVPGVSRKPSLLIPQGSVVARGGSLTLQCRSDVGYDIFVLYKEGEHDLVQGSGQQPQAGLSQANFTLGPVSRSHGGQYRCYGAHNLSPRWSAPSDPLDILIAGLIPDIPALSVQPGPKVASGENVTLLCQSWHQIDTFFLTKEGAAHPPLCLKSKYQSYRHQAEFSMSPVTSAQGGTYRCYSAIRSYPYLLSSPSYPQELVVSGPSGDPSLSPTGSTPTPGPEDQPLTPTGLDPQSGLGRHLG
T5 sequence (Q8N423 22-460 limits assumed): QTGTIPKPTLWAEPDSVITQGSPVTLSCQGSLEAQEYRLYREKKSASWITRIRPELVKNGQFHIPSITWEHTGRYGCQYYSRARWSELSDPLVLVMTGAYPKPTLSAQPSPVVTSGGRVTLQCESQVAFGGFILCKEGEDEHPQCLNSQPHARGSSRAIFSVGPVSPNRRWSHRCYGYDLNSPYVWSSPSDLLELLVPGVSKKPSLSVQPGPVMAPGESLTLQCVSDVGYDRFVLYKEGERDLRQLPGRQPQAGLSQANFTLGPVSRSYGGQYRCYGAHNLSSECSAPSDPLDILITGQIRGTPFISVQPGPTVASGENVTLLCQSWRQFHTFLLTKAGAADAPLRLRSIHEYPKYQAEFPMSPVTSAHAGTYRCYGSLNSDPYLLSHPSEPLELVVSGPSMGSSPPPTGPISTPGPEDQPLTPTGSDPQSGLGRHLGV
T3 sequence (Q6PI73 24-447 limits assumed): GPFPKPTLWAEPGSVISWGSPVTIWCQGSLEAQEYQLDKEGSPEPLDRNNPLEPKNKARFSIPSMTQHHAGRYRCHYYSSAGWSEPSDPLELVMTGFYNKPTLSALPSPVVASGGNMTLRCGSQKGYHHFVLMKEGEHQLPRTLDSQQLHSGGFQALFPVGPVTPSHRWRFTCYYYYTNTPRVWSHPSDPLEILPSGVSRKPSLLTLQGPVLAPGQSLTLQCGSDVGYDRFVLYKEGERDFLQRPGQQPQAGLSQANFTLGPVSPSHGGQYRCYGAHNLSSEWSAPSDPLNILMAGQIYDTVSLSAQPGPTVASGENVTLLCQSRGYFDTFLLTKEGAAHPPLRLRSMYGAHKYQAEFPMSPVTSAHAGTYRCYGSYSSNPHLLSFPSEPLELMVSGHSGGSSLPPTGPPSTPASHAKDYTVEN
T6 sequence (O75022 24-443 limits assumed): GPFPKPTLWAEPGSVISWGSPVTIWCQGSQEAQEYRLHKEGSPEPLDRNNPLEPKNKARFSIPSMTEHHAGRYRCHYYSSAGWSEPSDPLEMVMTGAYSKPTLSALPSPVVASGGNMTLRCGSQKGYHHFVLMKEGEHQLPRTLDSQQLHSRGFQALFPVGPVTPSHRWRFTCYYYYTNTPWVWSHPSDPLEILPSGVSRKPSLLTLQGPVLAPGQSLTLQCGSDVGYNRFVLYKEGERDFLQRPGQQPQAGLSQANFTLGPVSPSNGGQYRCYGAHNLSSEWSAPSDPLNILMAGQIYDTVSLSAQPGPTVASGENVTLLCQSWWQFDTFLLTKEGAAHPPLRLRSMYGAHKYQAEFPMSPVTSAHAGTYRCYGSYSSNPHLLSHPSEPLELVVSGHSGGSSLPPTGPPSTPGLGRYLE
T11 sequence (Q8N6C8 24-439 limits assumed): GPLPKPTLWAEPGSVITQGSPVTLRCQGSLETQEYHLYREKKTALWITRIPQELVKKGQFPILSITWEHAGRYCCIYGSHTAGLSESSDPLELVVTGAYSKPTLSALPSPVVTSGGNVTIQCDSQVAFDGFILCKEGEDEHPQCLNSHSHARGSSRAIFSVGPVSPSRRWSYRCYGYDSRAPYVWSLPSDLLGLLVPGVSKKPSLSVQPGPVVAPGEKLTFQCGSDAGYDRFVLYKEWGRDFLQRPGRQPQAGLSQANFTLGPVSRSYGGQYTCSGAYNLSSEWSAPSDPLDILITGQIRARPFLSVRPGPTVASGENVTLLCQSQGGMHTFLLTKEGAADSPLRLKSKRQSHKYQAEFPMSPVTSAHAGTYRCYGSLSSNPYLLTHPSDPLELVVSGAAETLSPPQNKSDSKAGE
T4 sequence (Q8NHL6 24-461 limits assumed): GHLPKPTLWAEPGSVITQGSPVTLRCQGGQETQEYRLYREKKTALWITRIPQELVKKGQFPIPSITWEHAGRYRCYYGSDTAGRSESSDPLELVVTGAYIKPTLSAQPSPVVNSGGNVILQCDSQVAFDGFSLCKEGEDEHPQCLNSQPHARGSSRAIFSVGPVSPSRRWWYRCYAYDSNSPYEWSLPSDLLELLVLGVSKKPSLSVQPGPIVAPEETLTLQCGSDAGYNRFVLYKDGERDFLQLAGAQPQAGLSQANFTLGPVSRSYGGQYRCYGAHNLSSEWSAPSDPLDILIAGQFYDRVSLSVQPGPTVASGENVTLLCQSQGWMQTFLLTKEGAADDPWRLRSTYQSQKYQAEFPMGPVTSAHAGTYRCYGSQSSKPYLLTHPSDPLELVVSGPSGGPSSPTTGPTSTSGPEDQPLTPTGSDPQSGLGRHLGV
T9 sequence (O75019 17-461 limits assumed): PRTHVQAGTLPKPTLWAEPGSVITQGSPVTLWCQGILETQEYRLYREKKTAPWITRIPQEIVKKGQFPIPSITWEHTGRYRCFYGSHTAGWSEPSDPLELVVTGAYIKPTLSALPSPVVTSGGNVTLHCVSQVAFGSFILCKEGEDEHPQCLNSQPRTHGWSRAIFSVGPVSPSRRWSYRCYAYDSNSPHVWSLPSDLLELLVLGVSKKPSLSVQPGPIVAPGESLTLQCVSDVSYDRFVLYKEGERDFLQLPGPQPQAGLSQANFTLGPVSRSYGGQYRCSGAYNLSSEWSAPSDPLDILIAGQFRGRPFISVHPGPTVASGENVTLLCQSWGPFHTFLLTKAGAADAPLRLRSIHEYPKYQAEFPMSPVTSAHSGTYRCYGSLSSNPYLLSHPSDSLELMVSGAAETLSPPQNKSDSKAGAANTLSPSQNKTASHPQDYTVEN
T10 sequence (Q8N149 24-449 limits assumed): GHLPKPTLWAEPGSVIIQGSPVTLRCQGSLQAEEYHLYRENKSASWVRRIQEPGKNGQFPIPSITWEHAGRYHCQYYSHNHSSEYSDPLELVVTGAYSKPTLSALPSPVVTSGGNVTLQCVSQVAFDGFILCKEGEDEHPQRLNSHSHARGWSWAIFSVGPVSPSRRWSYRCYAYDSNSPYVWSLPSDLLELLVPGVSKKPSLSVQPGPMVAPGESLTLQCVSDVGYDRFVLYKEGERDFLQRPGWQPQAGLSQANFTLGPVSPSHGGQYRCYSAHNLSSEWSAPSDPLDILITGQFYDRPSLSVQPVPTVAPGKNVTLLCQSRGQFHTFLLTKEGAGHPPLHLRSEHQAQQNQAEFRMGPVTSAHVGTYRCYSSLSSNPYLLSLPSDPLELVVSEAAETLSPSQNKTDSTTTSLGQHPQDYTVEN
T12 sequence (P59901 24-446 limits assumed): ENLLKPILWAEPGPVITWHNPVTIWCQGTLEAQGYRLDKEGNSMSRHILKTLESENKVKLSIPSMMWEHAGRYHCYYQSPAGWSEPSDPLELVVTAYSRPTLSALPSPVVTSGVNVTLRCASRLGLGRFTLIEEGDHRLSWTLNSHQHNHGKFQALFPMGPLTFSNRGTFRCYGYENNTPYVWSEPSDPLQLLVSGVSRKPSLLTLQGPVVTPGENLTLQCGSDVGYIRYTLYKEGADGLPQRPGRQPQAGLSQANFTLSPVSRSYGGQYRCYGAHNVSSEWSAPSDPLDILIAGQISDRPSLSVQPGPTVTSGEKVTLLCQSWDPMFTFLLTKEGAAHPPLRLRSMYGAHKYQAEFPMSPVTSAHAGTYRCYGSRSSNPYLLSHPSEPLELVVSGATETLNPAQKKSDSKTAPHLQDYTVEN

B1: 抗LILRB4单克隆抗体MF-I (full antibody, mouse IgG1 heavy chain constant region and mouse Ck light chain constant region) (antibody, V domains shown)
VH: QVQLEQSGAELVKPGASVKLSCKASGYTFTNYWMHWVKQRHGQGLEWIGEINPSNGRTNYNEKFKTKATLTVDKSSSTAYMQLSSLTSEDSAVYYCAKNYRYDDWAMDYWGQGTSVTVSS
VL: DIVLTQSPSSMYASLGERVTITCKASEDINSYLSWFQQKPGKSPKTLIYRANRLVDGVPSRFSGSGSGQDYSLTISSLEYEDMGIYYCLQYDEIPPTFGAGTKLELKA
notes: also called MF-Ⅰ
Regarding B1, in experiment [1], the “IC50(μg/mL), 抑制THP-1分泌ARG1 (arginase activity in the supernatant, with 0.5 μg/mL ApoE)” value came to 367 µg/mL. For the same molecule, the “OD 450nm/630nm” value came out at 0.012 in the experiment with LILRA5 [2]; 0.112 with LILRA6 [3]; 0.123 in the experiment with LILRB1 [4]; 0.213 in the experiment with LILRB2 [5]; 0.18 with LILRB3 [6]; 0.012 in the experiment with LILRB5 [7]. Moreover, the “OD 450nm/630nm” value in the experiment with LILRB4抗原 (人LILRB4蛋白胞外段) [8] is 2.3; in the experiment with LILRA1 [9] it was 0.111; in the experiment with LILRA2 [10] it was 0.036; in the experiment with LILRA3 [11], 0.064; with LILRA4 [12] it was 0.014. The binding result with LILRA5 [13], with LILRA6 [14], with LILRB1 [15], with LILRB2 [16], with LILRB3 [17] and in the experiment with LILRB5 [18] was “no binding (tested: 50μg/mL)” in each case. Moreover, the binding result in the experiment with LILRA1 [19], in the experiment with LILRA2 [20], with LILRA3 [21] and in the experiment with LILRA4 [22] was “no binding (tested: 50μg/mL)” in each case. The molecule also yielded an EC50 with LILRB4抗原 (人LILRB4蛋白胞外段) [23] of 0.406 µg/mL. This molecule also returned an IC50 in experiment [24] of 10.5 µg/mL.

Usually EC50 stands for the concentration at which the effect is half-maximal. One may read the IC50 as the concentration at which inhibition is half-maximal.
